Substrate in the data set: CCCCCCCCCCCC(=O)Oc1ccc([N+](=O)[O-])cc1
In words: purified protein. Type of data set: biochemical, Bacillus licheniformis. Conditions: 0.1-1 mM substrate, standard assay pH 7 phosphate buffer, 35 °C, 0.01% Triton X-100, 0.1% polyvinyl alcohol, DMSO.

B1: MLipA (mature LipA lipase of B. licheniformis IBRL-CHS2) (Bacillus licheniformis DSM 13 = ATCC 14580) (protein)
chain: ASHNPVVMVHGIGGADYNFIGIKSYLQSQGWTSSELYAINFIDKTGNNINNAPRLSEYIKRVLNQTGASKVDIVAHSMGGANTLYYIKNLDGADKVGHVVTLGGANRLVTNTAPQNDKISYTSIYSTSDYIVLNSLSKLDGANNVQISGVSHVGLLFSSKVNALIKDGLTASGK
notes: signal peptide (residues 1-30) removed; E. coli BL21 (DE3); IMAC purified
As for B1, the Km amounted to 360 µM.

These data come from paper PMC11651597, “Characterization of a novel subfamily 1.4 lipase from Bacillus licheniformis IBRL-CHS2: Cloning and expression optimization” (PLOS ONE, 2024).
